Source: US20190225669A1

T1: BMP7, P18075
T1 chain: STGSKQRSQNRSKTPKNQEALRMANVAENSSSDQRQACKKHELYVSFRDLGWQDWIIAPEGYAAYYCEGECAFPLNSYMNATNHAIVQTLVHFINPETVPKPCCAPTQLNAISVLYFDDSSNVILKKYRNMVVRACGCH


Columns and labels:
Conditions in all cases: remark: other sources report otherwise
BMP7, P18075 = molecular target: T1, BMP7, P18075; experiment: Biacore SPR
GDF8, O14793 [1] = experiment: Biacore SPR
GDF8, O14793 [2] = experiment: Biacore SPR; † very low signal

Sequence of GDF8, O14793 (O14793 267-375 limits assumed): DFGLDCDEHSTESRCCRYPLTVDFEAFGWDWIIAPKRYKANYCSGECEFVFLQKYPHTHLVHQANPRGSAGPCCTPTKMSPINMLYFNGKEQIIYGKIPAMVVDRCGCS

Binder | Kd (BMP7, P18075) [nM] | koff (BMP7, P18075) [s⁻¹] | kon (BMP7, P18075) [M⁻¹ s⁻¹] | koff (GDF8, O14793 [1]) [s⁻¹] | kon (GDF8, O14793 [1]) [M⁻¹ s⁻¹] | Kd (GDF8, O14793 [2]) [nM]
ALK3-Fc homodimer, P36894 24-152 (Fc fusion, UniProt P36894 24-152, looked up, not shown: a dimerising Fc or GST) QNLDSMLHGTGMKSDSDQKKSENGVTLAPEDTLPFLKCYCSGHCPDDAINNTCITNGHCFAIIEEDDQGETTLASGCMKYEGSDFQCKDSPKAQLRRTIECCRTNLCNQYLQPTLPPVVIGPFFDGSIR | 15 | 0.018 | 1.2e+06 |  |  | 
ALK4-Fc homodimer, P36896 24-126 (Fc fusion, UniProt P36896 24-126, looked up, not shown: a dimerising Fc or GST) SGPRGVQALLCACTSCLQANYTCETDGACMVSIFNLDGMEHHVRTCIPKVELVPAGKPFYCLSSEDLRNTHCCYTDYCNRIDLRVPSGHLKEPEHPSMWGPVE |  |  |  | 0.0019 | 130000 | 15
